According to patent US20150285818A1, “Switchable Reporter Enzymes for Homogenous Antibody Detection” (TECHNISCHE UNIVERSITEIT EINDHOVEN, priority 2012, published 2015):
Substitutions are numbered along the chain they refer to. Names may count otherwise.

B1: Abs-1: TEM1 β-lactamase fused via linker with WEKIRLR epitopes to weak-binding RRGHYY peptide inhibitor; SEQ ID NO: 12 (protein)
chain: MSIQHFRVALIPFFAAFCLPVFAHHHHHHLVPRGSHPETLVKVKDAEDQLGARVGYIELDLNSGKILESFRPEERFPMMSTFKVLLCGAVLSRIDAGQEQLGRRIHYSQNDLVEYSPVTEKHLTDGMTVRELCSAAITMSDNTAANLLLTTIGGPKELTAFLHNMGDHVTRLDRWEPELNEAIPNDERDTTMPVAMATTLRKLLTGELLTLASRQQLIDWMEADKVAGPLLRSALPAGWFIADKSGAGERGSRGIIAALGPDGKPSRIVVIYTTGSQATMDERNRQIAEIGASLIKHWTSGGWEKIRLRGGSGGSGGSGGSGGSGGSGAEAAAKEAAAKEAAAKEAAAKEAAAKEAAAKAGSGGSGGSGGPQGILGQGSGGSGGSGGSGAEAAAKEAAAKEAAAKEAAAKEAAAKEAAAKAGSGGSGGSGGSGGSGGSGGWEKIRLRGGSGGSHGRRGHYYGEFGGWSHPQFEK
B2: Abs3-1: Abs-3 variant with E104D in β-lactamase and E31A in BLIP; SEQ ID NO: 22 (protein)
chain: MSIQHFRVALIPFFAAFCLPVFAHHHHHHLVPRGSHPETLVKVKDAEDQLGARVGYIELDLNSGKILESFRPEERFPMMSTFKVLLCGAVLSRIDAGQEQLGRRIHYSQNDLVDYSPVTEKHLTDGMTVRELCSAAITMSDNTAANLLLTTIGGPKELTAFLHNMGDHVTRLDRWEPELNEAIPNDERDTTMPVAMATTLRKLLTGELLTLASRQQLIDWMEADKVAGPLLRSALPAGWFIADKSGAGERGSRGIIAALGPDGKPSRIVVIYTTGSQATMDERNRQIAEIGASLIKHWTSGGELDRWEKIRLRPGGSGGSGGSGGSGGSGGSGAEAAAKEAAAKEAAAKEAAAKEAAAKEAAAKAGSGGSGGSGGSGGSGGSGAEAAAKEAAAKEAAAKEAAAKEAAAKEAAAKAGSGGSGGSGGSGGSGGSGGELDRWEKIRLRPGGSHGAGVMTGAKFTQIQFGMTRQQVLDIAGAENCATGGSFGDSIHCRGHAAGDYYAYATFGFTSAAADAKVDSKSQEKLLAPSAPTLTLAKFNQVTVGMTRAQVLATVGQGSCTTWSEYYPAYPSTAGVTLSLSCFDVDGYSSTGFYRGSAHLWFTDGVLQGKRQWDLVGEFGGWSHPQFEK
B3: Abs3-2: Abs-3 variant with E104D in β-lactamase and F142A in BLIP; SEQ ID NO: 37 (protein)
chain: B2 chain with A482E, F593A
B4: Abs2-2: Abs3-2 with the large epitope changed for the shorter WEKIRLR epitope; SEQ ID NO: 20 (protein)
chain: MSIQHFRVALIPFFAAFCLPVFAHHHHHHLVPRGSHPETLVKVKDAEDQLGARVGYIELDLNSGKILESFRPEERFPMMSTFKVLLCGAVLSRIDAGQEQLGRRIHYSQNDLVDYSPVTEKHLTDGMTVRELCSAAITMSDNTAANLLLTTIGGPKELTAFLHNMGDHVTRLDRWEPELNEAIPNDERDTTMPVAMATTLRKLLTGELLTLASRQQLIDWMEADKVAGPLLRSALPAGWFIADKSGAGERGSRGIIAALGPDGKPSRIVVIYTTGSQATMDERNRQIAEIGASLIKHWTSGGWEKIRLRGGSGGSGGSGGSGGSGGSGAEAAAKEAAAKEAAAKEAAAKEAAAKEAAAKAGSGGSGGSGGPQGILGQGSGGSGGSGGSGAEAAAKEAAAKEAAAKEAAAKEAAAKEAAAKAGSGGSGGSGGSGGSGGSGGWEKIRLRGGSGGSHGAGVMTGAKFTQIQFGMTRQQVLDIAGAENCETGGSFGDSIHCRGHAAGDYYAYATFGFTSAAADAKVDSKSQEKLLAPSAPTLTLAKFNQVTVGMTRAQVLATVGQGSCTTWSEYYPAYPSTAGVTLSLSCFDVDGYSSTGAYRGSAHLWFTDGVLQGKRQWDLVGEFGGWSHPQFEK
B5: Abs-2: TEM1 β-lactamase fused via linker with WEKIRLR epitopes to BLIP protein as inhibitor domain; SEQ ID NO: 13 (protein)
chain: B4 chain with D114E, A597F

Legend:
[1] = tested on: anti-HIV1-p17 antibody; assay: Reporter enzyme activity assay with nitrocefin and anti-HIV1-p17 antibody titration; conditions: 50 μM nitrocefin; for increase in enzymatic activity upon addition of 200 nM anti-HIV1-p17: 0.3 nM sensor, 200 nM antibody; for Kd: read-out: dissociation constant (Kd) of reporter enzyme for target antibody, fit of nitrocefin hydrolysis rate vs anti-HIV1-p17 concentration, 1:1 binding model, pH 7.0
[2] = tested on: IgG mix; assay: Specificity of reporter enzyme activity towards nonspecific IgG mix; conditions: up to highest IgG concentration tested (2 μM)
[3] = tested on: anti-HIV1-p17 antibody; assay: Reporter enzyme activity assay with fluorescent substrate CCF2-FA in buffer and serum

| Molecule | increase in enzymatic activity upon addition of 200 nM anti-HIV1-p17 [1] | increase in enzyme activity with random mix of IgG proteins [2] | enzymatic (background) activity in the absence of antibody [1] | Kd [1] [nM] | increase in enzyme activity upon addition of 50 nM target antibody in serum ([3]; 5 nM sensor, 10% FBS, 10 μM CCF2-FA) [fold] | dynamic range with CCF2-FA as substrate ([3]; 1 μM CCF2-FA in buffer, 0.1 nM sensor) [fold] | enzymatic activity in absence of target antibody, 1 μM CCF2-FA compared to 50 μM nitrocefin ([3]; buffer) | increase in enzyme activity upon addition of target antibody ([1]; saturating anti-HIV1-p17) [fold] |
| --- | --- | --- | --- | --- | --- | --- | --- | --- |
| B1 | no increase in enzymatic activity | – | – | – | – | – | – | – |
| B2 | – | No significant increase | low background activity | 0.17 ± 0.03 | 10 | 9 | significantly lower | – |
| B3 | – | No significant increase | low background activity | 0.19 ± 0.02 | – | – | – | – |
| B4 | – | – | – | 108 | – | – | – | 1.8 |
| B5 | no increase in activity | – | strongly inhibited | – | – | – | – | – |
